Numbering of substitutions follows the chain as printed. Names and notes keep the numbering of the source.
B1: H4H2350P (antibody, human IgG4, V domains shown)
VH: QVQLQESGPGLVKPSETLSLTCTVSGGSISTYYWSWFRQPPGKGLEWIGYIYYSGSTNHNPSLKSRVTISVDTSKNQFSLKLRSVTAADTAVYYCARVGPVGWGSWGNFDYWGQGTLVTVSS
VL: DIQLTQSPSFLSASVGDRVTITCWASQGISSYLAWSQQKPGKAPKLLIYAASTLQSGVPSRFSGSGSGTEFTLTISSLQPEDFATYYCQQLNSYPWTFGQGTKVEIK
notes: human IgG4 Fc (H4H)
B2: H4H2355S (antibody, human IgG4, V domains shown)
VH: EVQLVESGGGLVQPGGSLRLSCAASGFTFSSYAMSWVRQVPGKGLEWVSAISGSGDNTYNAESVKGRFTISRDNSKNMLYLQMNSLRAEDTAVYYCAKTKFSSSLLFDYWGQGTLVTVSS
VL: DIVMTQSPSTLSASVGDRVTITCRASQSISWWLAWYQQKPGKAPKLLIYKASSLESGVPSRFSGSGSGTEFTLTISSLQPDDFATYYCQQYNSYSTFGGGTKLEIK
notes: human IgG4 Fc (H4H)
B3: H4H2236N3 (antibody, human IgG4, V domains shown)
VH: EVQLLESGGNLVQPGGSLRLSCAASGFTFSSYAMTWVRQAPGKGLEWVSTISGSGTSTYYADSVKGRFTISRDNSRDTVFLQMNSLRAEDTAVYYCSKPSALRFLHWLAMDVWGQGTLVTVSS
VL: DIQMTQSPSSLSAFVGDRVTITCRASQDIRNYLDWFQQKPGKAPKSLIYAASNLQSGVPSRFGGSGSGTDFTLTINSLQPEDFVTYYCQQYNSYPPTFGGGTKVEIK
notes: human IgG4 Fc (H4H)
B4: H4H2291S (antibody, human IgG4, V domains shown)
VH: EVQLVESGGGLVQPGESLRLSCAASGFTFSNYAMSWVRQAPGKGLEWVSVISGSGGSTYYADSVKGRFTMSRDNSKNTLYLQMNSLRAEDTAVYYCAKPPSRAARYFNYGMDVWGQGTTVTVSS
VL: AIRMTQSPSSVSASVGDRVTITCRASQGISSWLAWYQQKPGKAPKLLIYAASSLQSGVPSRFSGSGSGTDFTLTISSLQPEDFATYYCQQANSFPFTFGGGTKVEIK
notes: human IgG4 Fc (H4H)
B5: H4H2295S (antibody, human IgG4, V domains shown)
VH: EVQLVESGGGLVQAGGSLRLSCVASGFTFSSYAMSWVRQAPGKGLEWVSAISGSGGSTYSADSVKGRFTISRDNSKNTLYLQMNSLRAEDTAVYYCTKPSSYSSSNFYYGMDVWGQGTTVTVSS
VL: B4 VL with A1D, R3Q, A50T, G68R, A91T, F94L, F96L, G100P
notes: human IgG4 Fc (H4H)
B6: H4H2357S (antibody, human IgG4, V domains shown)
VH: EVQLVESGGGLVQPGGSLRLSCAASTFTFSSYAMTWVRQAPGKGLEWVSSISGSGDSTYYADSVKGRFTISRDNSKNTLFLQMNSLRAEDTAVYYCAKKDGPGRYYVRYGMDVWGQGTTVTVSS
VL: B4 VL with A1D, R3Q, A50T, A51T, F96L, E105D
notes: human IgG4 Fc (H4H)
B7: H4H2296S (antibody, human IgG4, V domains shown)
VH: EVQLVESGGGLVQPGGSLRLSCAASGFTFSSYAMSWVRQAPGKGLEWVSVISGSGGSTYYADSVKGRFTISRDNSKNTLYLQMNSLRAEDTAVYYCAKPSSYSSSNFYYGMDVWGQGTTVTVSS
VL: B4 VL with A1D, R3V, Q55R, S76T, Q90H, A91T, G100P
notes: human IgG4 Fc (H4H)
B8: H4H2344S (antibody, human IgG4, V domains shown)
VH: EVQLVESGGGVVQPGRSLRLSCAASGFSFSDYVMHWVRQAPGKGLEWVASIWFDGSNEFYADSVKGRFTISRDNSKNTLFLQMNSLRAEDTAVYYCAKKGVLVATSAFDIWGQGTMVTVSS
VL: DIQMTQSPSSLSASVGDRVTITCRASQSINNYLNWYHQKPGKAPKLLIYAASSLQSGVPSRFSGSGSGTDYTLTISSLQPEDFGNYYCQQSYRTSMYTFGQGTKVEIK
notes: human IgG4 Fc (H4H)
B9: H4H2346S (antibody, human IgG4, V domains shown)
VH: B8 VH with E1Q
VL: B8 VL with D1E, Q3V
notes: human IgG4 Fc (H4H)
B10: H4H2293P (antibody, human IgG4, V domains shown)
VH: B8 VH with E1Q, F59L, D109H
VL: B8 VL with D1A, S28N, K45N, R93S, V105L
notes: human IgG4 Fc (H4H)
B11: H4H2354S (antibody, human IgG4, V domains shown)
VH: B8 VH with E1Q
VL: B8 VL with M4L
notes: human IgG4 Fc (H4H); also called H4H2354S-1

molecular target: T1, human GFRα3 expressed with a C-terminal myc-myc-hexahistidine tag (human, UniProt O60609 32-374, biotinylated (sites not given) in ELISA format 2 and in the Octet cross-competition; not in SPR); assay: Octet cross-competition; biotin-hGFRα3-mmH pre-saturated with first antibody H4H2236N3
T1 construct: also called hGFRα3-mmh; hGFRα3-mmH
Method: (§1) A cross-competition assay was conducted to assess the ability of select antibodies to compete with one another for binding to human GFRα3 using an Octet RED384 biosensor (Fortebio Inc.). The entire experiment was performed at 25° C. with the flow rate of 1000 rpm in Octet HBST buffer (0.01 M HEPES pH7.4, 0.15M NaCl, 3 mM EDTA, 0.05% v/v Surfactant P20, 0.1 mg/mL BSA). To assess whether 2 antibodies were able to compete with one another for binding to their respective epitopes on biotinylated recombinant human GFRα3 expressed with a C-terminal myc-myc-hexahistidine tag (biotin-hGFRα3-mmH; SEQ ID:370), around ˜1.2 nm of biotin-hGFRα3-mmH was first captured onto streptavidin-coated Octet sensor tips (Fortebio Inc, #18-5019) by submerging the tips for 1 minute into a 10 μg/mL solution of biotin-hGFRα3-mmH. The antigen coated sensor tips were then placed into wells containing 25 μg/mL solution of a first anti-GFRα3 monoclonal antibody for 4 minutes to saturate the biotin-hGFRα3-mmH surface. The sensor tips were then subsequently dipped into wells containing 25 μ/mL solution of a second anti-GFRα3 monoclonal antibody. The sensor tips were washed in Octet HBST buffer in between every step of the experiment. The real-time binding response was monitored during the course of the experiment and the binding response at the end of every step was recorded as shown in FIG. 9. The response of mAb-2 binding to biotin-hGFRα3-mmH pre-complexed with the first antibody was compared and competitive/non-competitive behavior of different anti-GFRα3 monoclonal antibodies was determined.

Row | Binder | binding response of second antibody (nm)
1 | B1 | 1.35
2 | B2 | 0
3 | B3 | 0
4 | B4 | 0.06
5 | B5 | 0.03
6 | B6 | 0.04
7 | B7 | 0.02

molecular target: T1, human GFRα3 expressed with a C-terminal …; assay: Octet cross-competition; biotin-hGFRα3-mmH pre-saturated with first antibody H4H2296S
Method: as §1

Row | Binder | binding response of second antibody (nm)
8 | B1 | 1.27
9 | B2 | 0.02
10 | B3 | 0.07
11 | B4 | 0.18
12 | B5 | 0.05
13 | B6 | 0.06
14 | B7 | 0.07

molecular target: T1, human GFRα3 expressed with a C-terminal …; assay: Octet cross-competition; biotin-hGFRα3-mmH pre-saturated with first antibody H4H2243N2
Method: as §1

Row | Binder | binding response of second antibody (nm)
15 | B1 | 1.2
16 | B2 | 0.24
17 | B3 | 0.3
18 | B4 | 0.52
19 | B5 | 0.39
20 | B6 | 0.32
21 | B7 | 0.33

molecular target: T2, human GFRα3 expressed with a C-terminal hFc tag (human); assay: blocking ELISA 1, hGFRα3-hFc to coated hARTEMIN-mmH
T2 construct: also called hGFRα3-hFc
Method: A constant amount of human GFRα3 fused with a C-terminal human Fc tag (hGFRα3-hFc; SEQ ID:371) at 120 pM was pre-mixed with varying amounts of antibodies, ranging from 0 to ˜10 nM in serial dilutions, followed by an 1 hour incubation at room temperature (RT) to allow antibody-hGFRα3-hFc binding to reach equilibrium. The equilibrated sample solutions were then transferred to the hARTEMIN-mmH-coated plate. […] Absorbance was recorded at 450 nm on a Victor X5 plate reader (Perkin Elmer) to determine the amount of free hGFRα3-hFc in the pre-equilibrated hGFRα3-hFc-antibody solutions that was able to bind to the plate coated with hARTEMIN-mmH. IC₅₀ values, defined as the concentration of antibody required to reduce the signal from a constant concentration of hGFRα3-hFc by 50%, were calculated from the data using Prism software from GraphPad. The absorbance measured at the constant amount of 120 pM hGFRα3-hFc in the absence of anti-GFRα3 antibody is defined as 0% blocking and the absorbance with no added hGFRα3-hFc is defined as 100% blocking. The observed absorbance in the wells containing the highest antibody concentration was used to calculate the maximum blocking percent shown in the table.

T2 sequence (chain, as listed by the source limits assumed): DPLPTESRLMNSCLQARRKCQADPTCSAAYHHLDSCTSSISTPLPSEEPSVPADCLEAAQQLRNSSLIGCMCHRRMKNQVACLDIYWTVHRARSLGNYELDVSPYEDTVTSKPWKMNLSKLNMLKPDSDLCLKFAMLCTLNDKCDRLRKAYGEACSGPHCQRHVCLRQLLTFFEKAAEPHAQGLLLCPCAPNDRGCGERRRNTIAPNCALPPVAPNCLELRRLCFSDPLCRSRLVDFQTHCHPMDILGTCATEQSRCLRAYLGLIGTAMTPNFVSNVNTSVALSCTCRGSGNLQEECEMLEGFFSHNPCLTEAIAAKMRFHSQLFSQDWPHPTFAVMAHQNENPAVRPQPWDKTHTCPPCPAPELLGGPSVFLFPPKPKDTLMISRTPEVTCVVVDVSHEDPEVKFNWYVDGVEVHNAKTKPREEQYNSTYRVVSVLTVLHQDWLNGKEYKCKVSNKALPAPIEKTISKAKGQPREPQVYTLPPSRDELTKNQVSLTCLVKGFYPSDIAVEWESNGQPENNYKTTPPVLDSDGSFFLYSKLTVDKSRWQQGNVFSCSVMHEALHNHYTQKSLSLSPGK

Row | Binder | % max blocking [%] | IC50 [nM]
22 | B1 | 93 | 0.496
23 | B8 | 94 | 0.133
24 | B9 | 92 | 0.0978
25 | B10 | 93 | 0.26
26 | B11 | 92 | 0.116

molecular target: T1, human GFRα3 expressed with a C-terminal …; assay: Octet cross-competition; biotin-hGFRα3-mmH pre-saturated with first antibody H4H2357S
Method: as §1

Row | Binder | binding response of second antibody (nm)
27 | B1 | 1.35
28 | B2 | 0
29 | B3 | 0.04
30 | B4 | 0.18
31 | B5 | 0.12
32 | B6 | 0.04
33 | B7 | 0.06

molecular target: T1, human GFRα3 expressed with a C-terminal …; assay: Octet cross-competition; biotin-hGFRα3-mmH pre-saturated with first antibody H4H2342P
Method: as §1

Row | Binder | binding response of second antibody (nm)
34 | B1 | 1.46
35 | B2 | 0.16
36 | B3 | 0.2
37 | B4 | 0.45
38 | B5 | 0.31
39 | B6 | 0.25
40 | B7 | 0.28

molecular target: T1, human GFRα3 expressed with a C-terminal …; assay: Octet cross-competition; biotin-hGFRα3-mmH pre-saturated with first antibody H4H2352S
Method: as §1

Row | Binder | binding response of second antibody (nm)
41 | B1 | 1.43
42 | B2 | 2.12
43 | B3 | 2.15
44 | B4 | 2.63
45 | B5 | 2.31
46 | B6 | 2.45
47 | B7 | 2.35

molecular target: T1, human GFRα3 expressed with a C-terminal …; assay: Octet RED384; 25 µg/mL first antibody on streptavidin-captured biotin-hGFRα3-mmH
Method: as §1

Row | Binder | Amount of Antibody 1 bound (nm)
48 | B1 | 3.31
49 | B2 | 2.73
50 | B3 | 2.64
51 | B4 | 2.89
52 | B5 | 2.83
53 | B6 | 2.82
54 | B7 | 2.88

From US20140056903A1 (Regeneron, published 2014)
